For data set [1], the target named is T1, TRBP-ΔC-RBD2-Null (UniProt Q15633-2 9-215, K150A;K189A;K190A).
T1 sequence: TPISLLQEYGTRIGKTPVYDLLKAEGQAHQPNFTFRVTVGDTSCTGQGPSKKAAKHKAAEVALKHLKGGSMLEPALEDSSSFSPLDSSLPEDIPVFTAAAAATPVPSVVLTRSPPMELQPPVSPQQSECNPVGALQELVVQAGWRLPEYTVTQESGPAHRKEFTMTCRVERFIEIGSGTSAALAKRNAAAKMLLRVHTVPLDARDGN
Nature of the data set: EMSA; apparent Kd; nH 3.4; 50 mM sodium cacodylate pH 7.0, 50 mM potassium glutamate, 5% glycerol; EMSA 0.5 pM RNA, 30 min at room temperature, gel 0.25X TBE at 10 C; CD at 10 C with 5-15 uM RNA. To be noted: protein: recombinant; label: 5'-32P top strand (EMSA); blunt. (Mobility shift assays separate free from complexed probe on a gel.)

Data set [2] addresses T2, TRBP-ΔC-RBD1-Null (UniProt Q15633-2 9-215, K23A;K59A;K60A).
T2 sequence: T1 sequence with K15A, K51A, K52A, A142K, A181K, A182K
Nature of the data set: EMSA; apparent Kd; nH 3.0; 50 mM sodium cacodylate pH 7.0, 50 mM potassium glutamate, 5% glycerol; EMSA 0.5 pM RNA, 30 min at room temperature, gel 0.25X TBE at 10 C; CD at 10 C with 5-15 uM RNA. To be noted: protein: recombinant; label: 5'-32P top strand (EMSA); blunt.

Data set [3] addresses T1, TRBP-ΔC-RBD2-Null. Nature of the data set: EMSA; apparent Kd; nH 3.2; 50 mM sodium cacodylate pH 7.0, 50 mM potassium glutamate, 5% glycerol; EMSA 0.5 pM RNA, 30 min at room temperature, gel 0.25X TBE at 10 C; CD at 10 C with 5-15 uM RNA. To be noted: protein: recombinant; label: 5'-32P top strand (EMSA); blunt.
Data set [4] deals with T2, TRBP-ΔC-RBD1-Null. Description: EMSA; apparent Kd; nH 3.1; 50 mM sodium cacodylate pH 7.0, 50 mM potassium glutamate, 5% glycerol; EMSA 0.5 pM RNA, 30 min at room temperature, gel 0.25X TBE at 10 C; CD at 10 C with 5-15 uM RNA. To be noted: protein: recombinant; label: 5'-32P top strand (EMSA); blunt.
In data set [5] the target is T1, TRBP-ΔC-RBD2-Null. Description: EMSA; apparent Kd; nH 2.0; 50 mM sodium cacodylate pH 7.0, 50 mM potassium glutamate, 5% glycerol; EMSA 0.5 pM RNA, 30 min at room temperature, gel 0.25X TBE at 10 C; CD at 10 C with 5-15 uM RNA. To be noted: protein: recombinant; label: 5'-32P top strand; imperfect duplex with U-bulge and A-A mismatch.

We go through three molecules from paper PMC4301919, “Helical Defects in MicroRNA Influence Protein Binding by TAR RNA Binding Protein”.

Residue numbers refer to the chain shown, from its start.

B1: ds33 (dsRNA)
RNA 1: GGUCAGCAGUGCCUUAGCAGCACGUAAAUAUGG
RNA 2: CCAUAUUUACGUGCUGCUAAGGCACUGCUGACC
B1: the Kd in the data set with TRBP-ΔC-RBD2-Null [1] came out at 440 ± 50 nM; with TRBP-ΔC-RBD1-Null [2] it was 1220 ± 70 nM.

B2: ds22 (dsRNA)
RNA 1: GUCAGCAGUGCCUUAGCAGCAC
RNA 2: GUGCUGCUAAGGCACUGCUGAC
Consider B2, for which the Kd with TRBP-ΔC-RBD2-Null [3] came to 340 ± 10 nM; with TRBP-ΔC-RBD1-Null [4], 2290 ± 80 nM.

B3: miR-16-1/miR-16-1* (dsRNA)
RNA 1: UAGCAGCACGUAAAUAUUGGCG
RNA 2: CCAGUAUUAACUGUGCUGCUGAA
For the molecule B3, the Kd with TRBP-ΔC-RBD2-Null [5] was 900 ± 100 nM.
